Test results: IntAct's records for PubMed 25416956

B1: Keratin, type II cytoskeletal 2 epidermal (Homo sapiens), P35908 (parent)
chain: MSCQISCKSRGRGGGGGGFRGFSSGSAVVSGGSRRSTSSFSCLSRHGGGGGGFGGGGFGSRSLVGLGGTKSISISVAGGGGGFGAAGGFGGRGGGFGGGSSFGGGSGFSGGGFGGGGFGGGRFGGFGGPGGVGGLGGPGGFGPGGYPGGIHEVSVNQSLLQPLNVKVDPEIQNVKAQEREQIKTLNNKFASFIDKVRFLEQQNQVLQTKWELLQQMNVGTRPINLEPIFQGYIDSLKRYLDGLTAERTSQNSELNNMQDLVEDYKKKYEDEINKRTAAENDFVTLKKDVDNAYMIKVELQSKVDLLNQEIEFLKVLYDAEISQIHQSVTDTNVILSMDNSRNLDLDSIIAEVKAQYEEIAQRSKEEAEALYHSKYEELQVTVGRHGDSLKEIKIEISELNRVIQRLQGEIAHVKKQCKNVQDAIADAEQRGEHALKDARNKLNDLEEALQQAKEDLARLLRDYQELMNVKLALDVEIATYRKLLEGEECRMSGDLSSNVTVSVTSSTISSNVASKAAFGGSGGRGSSSGGGYSSGSSSYGSGGRQSGSRGGSGGGGSISGGGYGSGGGSGGRYGSGGGSKGGSISGGGYGSGGGKHSSGGGSRGGSSSGGGYGSGGGGSSSVKGSSGEAFGSSVTFSFR
partner: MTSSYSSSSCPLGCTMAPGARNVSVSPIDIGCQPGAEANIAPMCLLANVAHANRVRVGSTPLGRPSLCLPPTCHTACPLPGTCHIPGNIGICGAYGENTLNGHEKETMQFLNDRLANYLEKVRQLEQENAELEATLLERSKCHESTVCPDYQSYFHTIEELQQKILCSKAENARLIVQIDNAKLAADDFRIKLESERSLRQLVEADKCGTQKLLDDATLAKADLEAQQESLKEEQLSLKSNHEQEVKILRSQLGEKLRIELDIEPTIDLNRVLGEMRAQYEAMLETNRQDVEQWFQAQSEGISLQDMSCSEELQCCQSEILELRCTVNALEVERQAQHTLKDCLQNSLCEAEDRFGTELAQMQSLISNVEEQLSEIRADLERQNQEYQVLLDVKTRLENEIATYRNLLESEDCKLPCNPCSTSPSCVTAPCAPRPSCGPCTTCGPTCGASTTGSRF
B2: Beta-crystallin A4 (Homo sapiens), P53673 (parent)
chain: MTLQCTKSAGPWKMVVWDEDGFQGRRHEFTAECPSVLELGFETVRSLKVLSGAWVGFEHAGFQGQQYILERGEYPSWDAWGGNTAYPAERLTSFRPAACANHRDSRLTIFEQENFLGKKGELSDDYPSLQAMGWEGNEVGSFHVHSGAWVCSQFPGYRGFQYVLECDHHSGDYKHFREWGSHAPTFQVQSIRRIQQ
partner: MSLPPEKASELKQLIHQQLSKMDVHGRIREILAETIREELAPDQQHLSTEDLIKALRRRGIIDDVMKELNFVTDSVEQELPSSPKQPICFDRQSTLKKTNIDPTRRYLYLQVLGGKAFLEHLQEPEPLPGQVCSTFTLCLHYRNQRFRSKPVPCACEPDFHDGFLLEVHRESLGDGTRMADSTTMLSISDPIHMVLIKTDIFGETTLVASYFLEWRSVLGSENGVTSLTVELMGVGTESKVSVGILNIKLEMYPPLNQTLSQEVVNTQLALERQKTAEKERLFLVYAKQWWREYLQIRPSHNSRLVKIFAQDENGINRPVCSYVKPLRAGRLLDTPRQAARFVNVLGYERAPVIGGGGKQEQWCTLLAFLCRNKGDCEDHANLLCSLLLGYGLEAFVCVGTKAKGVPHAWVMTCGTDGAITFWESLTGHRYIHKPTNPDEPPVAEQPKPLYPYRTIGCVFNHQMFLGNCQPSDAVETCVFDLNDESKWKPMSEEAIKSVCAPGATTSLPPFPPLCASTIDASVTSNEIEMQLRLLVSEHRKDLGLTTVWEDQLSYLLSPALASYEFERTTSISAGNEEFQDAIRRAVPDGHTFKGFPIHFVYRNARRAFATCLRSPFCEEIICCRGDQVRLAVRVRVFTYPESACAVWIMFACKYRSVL
B3: Keratin, type II cytoskeletal 6A (Homo sapiens), P02538 (parent)
chain: MASTSTTIRSHSSSRRGFSANSARLPGVSRSGFSSVSVSRSRGSGGLGGACGGAGFGSRSLYGLGGSKRISIGGGSCAISGGYGSRAGGSYGFGGAGSGFGFGGGAGIGFGLGGGAGLAGGFGGPGFPVCPPGGIQEVTVNQSLLTPLNLQIDPTIQRVRAEEREQIKTLNNKFASFIDKVRFLEQQNKVLETKWTLLQEQGTKTVRQNLEPLFEQYINNLRRQLDSIVGERGRLDSELRGMQDLVEDFKNKYEDEINKRTAAENEFVTLKKDVDAAYMNKVELQAKADTLTDEINFLRALYDAELSQMQTHISDTSVVLSMDNNRNLDLDSIIAEVKAQYEEIAQRSRAEAESWYQTKYEELQVTAGRHGDDLRNTKQEIAEINRMIQRLRSEIDHVKKQCANLQAAIADAEQRGEMALKDAKNKLEGLEDALQKAKQDLARLLKEYQELMNVKLALDVEIATYRKLLEGEECRLNGEGVGQVNISVVQSTVSSGYGGASGVGSGLGLGGGSSYSYGSGLGVGGGFSSSSGRAIGGGLSSVGGGSSTIKYTTTSSSSRKSYKH

Variants of: B1
Conditions: with krt38_human KRT38, O76015

Variant	effect of a mutation on the interaction
I477N	disrupting interaction

Variants of: B2
Conditions: with cep76_human CEP76, Q8TAP6

Variant	effect of a mutation on the interaction
MTLQCTKSAGPWKMVVWDEDGFQGRRHEFTAECPSMLELGFETVRSLKVLSGAWVGFEHAGFQGQQYILERGEYPSWDAWGGNTAYPAERLTSFRPAACANHRDSRLTIFEQENFLGKKGELSDDYPSLQAMGWEGNEVGSFHVHSGAWVCSQFPGYRGFQYVLECDHHSGDYKHFREWGSHAPTFQVQSIRRIQQ [V36M]	disrupting interaction

Variants of: B2
Conditions: with cep76_human CEP76, Q8TAP6
Remark: another data set of the same source

Variant	effect of a mutation on the interaction
MTLQCTKSAGPWKMVVWDEDGFQGRRHEFTAECPSVLELGFETVRSLKVLSGAWVGFEHAGFQGQQYILERGEYPSWDAWGGNTAYPAERLTSSRPAACANHRDSRLTIFEQENFLGKKGELSDDYPSLQAMGWEGNEVGSFHVHSGAWVCSQFPGYRGFQYVLECDHHSGDYKHFREWGSHAPTFQVQSIRRIQQ [F94S]	disrupting interaction

Variants of: B2
Conditions: with cep76_human CEP76, Q8TAP6
Remark: another data set of the same source

Variant	effect of a mutation on the interaction
MTLQCTKSAGPWKMVVWDEDGFQGRRHEFTAECPSVLELGFETVRSLKVLSGAWVGFEHAGFQGQQYIPERGEYPSWDAWGGNTAYPAERLTSFRPAACANHRDSRLTIFEQENFLGKKGELSDDYPSLQAMGWEGNEVGSFHVHSGAWVCSQFPGYRGFQYVLECDHHSGDYKHFREWGSHAPTFQVQSIRRIQQ [L69P]	disrupting interaction

Variants of: B3
Conditions: with tfp11_human TFIP11, Q9UBB9
tfp11_human TFIP11, Q9UBB9, sequence (Q9UBB9 whole entry): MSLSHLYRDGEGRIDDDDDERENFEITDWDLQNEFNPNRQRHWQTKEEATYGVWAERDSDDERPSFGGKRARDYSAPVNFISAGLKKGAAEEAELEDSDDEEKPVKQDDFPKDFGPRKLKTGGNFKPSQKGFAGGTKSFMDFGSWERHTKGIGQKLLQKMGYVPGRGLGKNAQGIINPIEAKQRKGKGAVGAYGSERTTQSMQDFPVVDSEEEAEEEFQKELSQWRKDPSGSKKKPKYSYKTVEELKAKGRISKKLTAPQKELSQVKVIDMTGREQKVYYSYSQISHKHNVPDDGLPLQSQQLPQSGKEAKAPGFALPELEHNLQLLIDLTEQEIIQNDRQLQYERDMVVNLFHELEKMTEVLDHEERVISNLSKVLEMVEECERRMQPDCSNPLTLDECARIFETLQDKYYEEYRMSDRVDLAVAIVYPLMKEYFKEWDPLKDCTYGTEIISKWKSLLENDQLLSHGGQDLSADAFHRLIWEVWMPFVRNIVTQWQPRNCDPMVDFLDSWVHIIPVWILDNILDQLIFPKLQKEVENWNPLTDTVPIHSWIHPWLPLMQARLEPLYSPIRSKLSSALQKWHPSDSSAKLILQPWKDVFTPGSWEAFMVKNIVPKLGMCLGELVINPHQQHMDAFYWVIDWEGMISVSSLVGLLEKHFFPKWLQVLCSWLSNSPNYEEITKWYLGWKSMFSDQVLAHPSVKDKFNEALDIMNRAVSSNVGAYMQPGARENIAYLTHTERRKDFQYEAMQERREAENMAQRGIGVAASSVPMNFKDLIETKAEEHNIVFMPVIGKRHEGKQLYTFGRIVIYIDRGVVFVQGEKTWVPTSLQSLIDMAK

Variant	effect of a mutation on the interaction
MASTSTTIRSHSSSRRGFSANSARLPGVSRSGFSSVSVSRSRGSGGLGGACGGAGFGSRSLYGLGGSKRISIGGGSCAISGGYGSRAGGSYGFGGAGSGFGFGGGAGIGFGLGGGAGLAGGFGGPGFPVCPPGGIQEVTVNQSLLTPLNLQIDPTIQRVRAEEREQIKTLNNKFASFIDKVRFLEQQNKVLETKWTLLQEQGTKTVRQNLEPLFEQYINNLRRQLDSIVGERGRLDSELRGMQDLVEDFKNKYEDEINKRTAAENEFVTLKKDVDAAYMNKVELQAKADTLTDEINFLRALYDAELSQMQTHISDTSVVLSMDNNRNLDLDSIIAEVKAQYEEIAQRSRAEAESWYQTKYEELQVTAGRHGDDLRNTKQEIAEINRMIQRLRSEIDHVKKQCANLQAAIADAEQRGEMALKDAKNKLEGLEDALQKAKQDLARLLKEYQELMNVKLALDVESATYRKLLEGEECRLNGEGVGQVNISVVQSTVSSGYGGASGVGSGLGLGGGSSYSYGSGLGVGGGFSSSSGRAIGGGLSSVGGGSSTIKYTTTSSSSRKSYKH [I462S]	disrupting interaction

Variants of: B3
Conditions: with tfp11_human TFIP11, Q9UBB9
Remark: another data set of the same source

Variant	effect of a mutation on the interaction
MASTSTTIRSHSSSRRGFSANSARLPGVSRSGFSSVSVSRSRGSGGLGGACGGAGFGSRSLYGLGGSKRISIGGGSCAISGGYGSRAGGSYGFGGAGSGFGFGGGAGIGFGLGGGAGLAGGFGGPGFPVCPPGGIQEVTVNQSLLTPLNLQIDPTIQRVRAEEREQIKTLNNKFASFIDKVRFLEQQNKVLETKWTLLQEQGTKTVRQNLEPLFEQYINNLRRQLDSIVGERGRLDSELRGMQDLVEDFKNKYEDEINKRTAAENEFVTLKKDVDAAYMNKVELQAKADTLTDEINFLRALYDAELSQMQTHISDTSVVLSMDNNRNLDLDSIIAEVKAQYEEIAQRSRAEAESWYQTKYEELQVTAGRHGDDLRNTKQEIAEINRMIQRLRSEIDHVKKQCANLQAAIADAEQRGEMALKDAKNKLEGLEDALQKAKQDLARLLKEYQELMNVKLALDVEIPTYRKLLEGEECRLNGEGVGQVNISVVQSTVSSGYGGASGVGSGLGLGGGSSYSYGSGLGVGGGFSSSSGRAIGGGLSSVGGGSSTIKYTTTSSSSRKSYKH [A463P]	disrupting interaction
